For the test, the target named is murine PDL-1 (murine) (UniProt Q9EP73). Briefly: bead based FACS of purified EVADER vectors with fluorescent-labelled antibody.
Chain of UniProt Q9EP73 (Q9EP73 19-290): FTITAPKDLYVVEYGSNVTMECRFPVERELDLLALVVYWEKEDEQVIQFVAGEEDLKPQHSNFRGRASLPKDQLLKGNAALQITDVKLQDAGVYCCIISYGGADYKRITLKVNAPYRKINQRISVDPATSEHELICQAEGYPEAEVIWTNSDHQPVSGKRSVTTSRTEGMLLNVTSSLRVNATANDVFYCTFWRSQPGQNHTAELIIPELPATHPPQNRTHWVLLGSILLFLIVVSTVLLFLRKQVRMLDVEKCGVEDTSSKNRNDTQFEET

In turn, “anti-murine PDL-1 (anti-PDL-1-PE-A, Abcam catalog number ab213480) (antibody)” showed a percent of EVADER vector particles positive (level on the surface) of 75.3%.

The values are drawn from patent US20200338216A1.
